{"source": "patent US20170319690A1", "about": "(AGENCY FOR SCIENCE TECHNOLOGY AND RESEARCH, published 2017)", "key": {"[1]": {"molecular_target": "biotinylated murine PD-L1 (murine) (UniProt Q9EP73)", "sequence (Q9EP73 19-238 limits assumed)": "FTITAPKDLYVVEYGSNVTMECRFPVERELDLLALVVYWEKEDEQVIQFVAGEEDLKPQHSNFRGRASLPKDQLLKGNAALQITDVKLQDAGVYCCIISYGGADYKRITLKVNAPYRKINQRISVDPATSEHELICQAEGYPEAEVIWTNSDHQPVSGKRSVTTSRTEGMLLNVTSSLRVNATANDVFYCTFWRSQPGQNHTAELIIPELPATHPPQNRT", "test": "blocking ELISA; murine PD-L1 binding to murine PD-1 (the blocked partner) in the presence of the IgG"}, "[2]": {"molecular_target": "T1, biotinylated human PD-L1 (human, UniProt Q9NZQ7 19-239, limits assumed, biotinylated)", "T1 construct": "construct not described", "T1 sequence (Q9NZQ7 19-239 limits assumed)": "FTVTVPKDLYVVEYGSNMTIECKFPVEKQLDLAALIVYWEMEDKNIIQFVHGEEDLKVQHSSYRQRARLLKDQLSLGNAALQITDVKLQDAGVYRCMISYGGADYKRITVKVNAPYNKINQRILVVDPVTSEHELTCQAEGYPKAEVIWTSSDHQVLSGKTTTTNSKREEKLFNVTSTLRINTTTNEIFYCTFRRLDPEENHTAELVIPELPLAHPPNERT", "test": "blocking ELISA; biotinylated human PD-L1 pre-incubated with the Fab, then added to plate-coated human PD-1-Fc (the blocked partner); streptavidin-HRP/TMB"}, "[3]": {"molecular_target": "T2, human PD-L1 expressed on cells (human, UniProt Q9NZQ7 19-290)", "T2 construct": "whole, on cells; also called PD-L1 transfected HEK 293 cells; HEK293-6E cells transfected with human PD-L1", "T2 sequence (Q9NZQ7 19-290)": "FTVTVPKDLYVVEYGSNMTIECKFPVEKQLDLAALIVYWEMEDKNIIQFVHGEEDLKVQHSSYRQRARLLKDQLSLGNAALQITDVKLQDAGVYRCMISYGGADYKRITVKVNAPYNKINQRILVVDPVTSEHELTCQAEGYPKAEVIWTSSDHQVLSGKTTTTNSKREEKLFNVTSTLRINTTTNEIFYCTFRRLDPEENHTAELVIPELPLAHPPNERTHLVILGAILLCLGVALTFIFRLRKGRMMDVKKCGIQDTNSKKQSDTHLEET", "test": "flow cytometry blocking assay; antibody mixed with human PD-1-PE (the blocked partner) and added to HEK293 cells transfected with human PD-L1", "from_the_text": "Cells were washed 3 times with PBS and all data were collected on a BD FACSCanto II (BD Bioscience) and analysed on BD FACSDiva software (BD Bioscience)."}, "[4]": {"molecular_target": "T1, biotinylated human PD-L1", "test": "ELISA; antibody coated on the plate at 2 ug/mL, biotinylated human PD-L1 titrated (x axis: Human PD-L1, nM), streptavidin-HRP/TMB", "protocol": "Binding was measured by ELISA. Antibodies were coated onto maxisorp plates at 2 μg/mL in coating buffer and incubated overnight at 4° C. The next day, plates were washed with wash buffer (PBS+0.05% Tween-20), and blocker with casein for 1 hour, at room temperature. Plates were then washed again using wash buffer. […] Plates were then washed again using wash buffer. […] Plates were then washed again using wash buffer. Finally, TMB was added to develop the ELISA; TMB conversion by HRP was stopped using 1M H—Cl."}, "[5]": {"molecular_target": "T1, biotinylated human PD-L1", "test": "avidity ELISA; biotinylated human PD-L1 (0.2 ug/mL) captured on a neutravidin plate, IgG titrated, anti-human Fc-HRP/TMB", "protocol": "Neutravidin was coated onto maxisorp plates at 2 μg/mL in coating buffer and incubated overnight at 4° C. The next day, plates were washed with wash buffer (PBS+0.05% Tween-20), and blocker with casein for 1 hour, at room temperature. Plates were then washed again using wash buffer. […] Plates were then washed again using wash buffer. The different antibodies were then added at various concentrations, and incubated for 1 hour at room temperature. Plates were then washed again using wash buffer. Anti-human Fc-HRP was then added and incubated for 1 hour at room temperature. Plates were then washed again using wash buffer. Finally, TMB was added to develop the ELISA; TMB conversion by HRP was stopped using 1M H—Cl."}}, "data": [{"molecule": "commercially available anti-murine PD-L1 IgG antibody 10F.9G2 (BioLegend)", "values": [{"measurement": "IC50 (read off the curve)", "setting": "[1]", "value": 10, "unit": "nM"}]}, {"molecule": "anti-PD-L1 antibody clone A1, Fab format (Fab, V domains shown, Human Fab from a phage display library) VH: QVQLQQSGAEVKKPGSSVKVSCKASGGTFSSYAISWVRQAPGQGLEWMGRIIPILGIANYAQKFQGRVTITADKSTSTAYMELSSLRSEDTAVYYCARGGSYGSLYAFDIWGQGTMVTVSS VL: QSVLTQPPSVSAAPGQRVSISCSGRSSNIASHDVFWYQQLPGTAPKIVMYETNKRPWGIPDRFSGSKSGTSATLDIAGLQTGDEADYYCGAWDSGLTGMLFGGGTKVTVL", "values": [{"measurement": "IC50 (read off the curve)", "setting": "[2]", "value": "~50", "unit": "nM"}]}, {"molecule": "anti-PD-L1 antibody clone C2, Fab format (Fab, V domains shown, Human Fab from a phage display library) VH: QVQLQQSGAEVKKPGSSVKVSCKASGGTFSSYAISWVRQAPGQGLEWMGRIIPILGIANYAQKFQGRVTITADKSTSTAYMELSSLRSEDTAVYYCARGGSYGSLYAFDIWGQGTTVTVSS VL: SYELTQPPSVSVAPGKTTRITCGGDNIGRKSVHWYQQRPGQAPLLLVYDDGDRPSGIPDRFSGSNSGNTATLTISGTQAMDEADYYCQAWDSTVVFGGGTRLTVL", "values": [{"measurement": "IC50 (read off the curve)", "setting": "[2]", "value": "~40", "unit": "nM"}]}, {"molecule": "anti-PD-L1 antibody H12, IgG1 format (antibody, V domains shown, IgG1) VH: EVQLVQSGAEVKKPGASVKVSCKASGGTFSSYAISWVRQAPGQGLEWMGRIIPILGIANYAQKFQGRVTITADKSTSTAYMELSSLRSEDTAVYYCARSGHGYSYGAFDYWGQGTL VL: QSVLTQPPSVSGAPGQRVTISCTGSSSNIGAGYDVHWYQQLPGTAPKLLIYGNSNRPSGVPDRFSGSKSGTSASLAITGLQAEDEADYYCQSYDSSLSGSYVVFGGGTKLTVL", "values": [{"measurement": "IC50 (read off the curve)", "setting": "[3]", "value": "~9", "unit": "nM"}]}, {"molecule": "anti-PD-L1 antibody H12, IgG4 format (antibody, V domains shown, IgG4) VH: EVQLVQSGAEVKKPGASVKVSCKASGGTFSSYAISWVRQAPGQGLEWMGRIIPILGIANYAQKFQGRVTITADKSTSTAYMELSSLRSEDTAVYYCARSGHGYSYGAFDYWGQGTL VL: QSVLTQPPSVSGAPGQRVTISCTGSSSNIGAGYDVHWYQQLPGTAPKLLIYGNSNRPSGVPDRFSGSKSGTSASLAITGLQAEDEADYYCQSYDSSLSGSYVVFGGGTKLTVL", "values": [{"measurement": "IC50 (read off the curve)", "setting": "[3]", "value": "~9", "unit": "nM"}]}, {"molecule": "anti-PD-L1 antibody H12_GL, IgG1 format (antibody, V domains shown, IgG1) VH: QVQLVQSGAEVKKPGSSVKVSCKASGGTFSSYAISWVRQAPGQGLEWMGRIIPILGIANYAQKFQGRVTITADKSTSTAYMELSSLRSEDTAVYYCARSGHGYSYGAFDYWGQGTLVTVSS VL: QSVLTQPPSVSGAPGQRVTISCTGSSSNIGAGYDVHWYQQLPGTAPKLLIYGNSNRPSGVPDRFSGSKSGTSASLAITGLQAEDEADYYCQSYDSSLSGSYVVFGGGTKLTVL", "values": [{"measurement": "IC50 (read off the curve)", "setting": "[3]", "value": "~7", "unit": "nM"}]}, {"molecule": "anti-PD-L1 antibody H12_GL, IgG4 format (antibody, V domains shown, IgG4) VH: QVQLVQSGAEVKKPGSSVKVSCKASGGTFSSYAISWVRQAPGQGLEWMGRIIPILGIANYAQKFQGRVTITADKSTSTAYMELSSLRSEDTAVYYCARSGHGYSYGAFDYWGQGTLVTVSS VL: QSVLTQPPSVSGAPGQRVTISCTGSSSNIGAGYDVHWYQQLPGTAPKLLIYGNSNRPSGVPDRFSGSKSGTSASLAITGLQAEDEADYYCQSYDSSLSGSYVVFGGGTKLTVL", "values": [{"measurement": "IC50 (read off the curve)", "setting": "[3]", "value": "~7", "unit": "nM"}]}, {"molecule": "anti-PD-L1 antibody C4 (format not stated in the example) (antibody, V domains shown, detected with anti-human Fc-HRP in the avidity ELISA, so it carried an Fc there) VH: QVQLQQSGAEVKKPGSSVKVSCKASGGTFSSYAISWVRQAPGQGLEWMGRIIPILGIANYAQKFQGRVTITADKSTSTAYMELSSLRSEDTAVYYCARGGYGGNSLYAFDIWGQGTMVTVSS VL: QSVVTQPPSVSAAPGQKVTISCSGSSSNIGNNYVSWYQQLPGTAPKLLIYDNNERLSGIPDRFSGSKSGTSATLGISGLQTGDEADYYCGTWDSSLSVVVFGGGTKLTVL", "values": [{"measurement": "EC50 (read off the curve)", "setting": "[4]", "value": "~0.9", "unit": "nM"}, {"measurement": "EC50 (read off the curve)", "setting": "[5]", "value": "~0.9", "unit": "nM"}]}]}
